Measurements taken from article PMC7609443, “Complement C1q Interacts With LRP1 Clusters II and IV Through a Site Close but Different From the Binding Site of Its C1r and C1s-Associated Proteases” (Frontiers in Immunology, 2020).

B1: Receptor-associated protein (RAP) (natural protein, UniProt P30533 35-357, looked up)
chain: YSREKNQPKPSPKRESGEEFRMEKLNQLWEKAQRLHLPPVRLAELHADLKIQERDELAWKKLKLDGLDEDGEKEARLIRNLNVILAKYGLDGKKDARQVTSNSLSGTQEDGLDDPRLEKLWHKAKTSGKFSGEELDKLWREFLHHKEKVHEYNVLLETLSRTEEIHENVISPSDLSDIKGSVLHSRHTELKEKLRSINQGLDRLRRVSHQGYSTEAEFEEPRVIDLWDLAQSANLTDKELEAFREELKHFEAKIEKHNHYQKQLEIAHEKLRHAESVGDGERVSRSREKHALLEGRTKELGYTVKKHLQDLSGRISRARHNEL
notes: receptor-associated protein (RAP), chaperone of 39 kDa of LRP1; Y'; The printed 'Y' may be the first residue of mature RAP (surmise)
B2: Soluble LRP1 cluster IV (domain or fragment)
chain: not shown
notes: four amino acids naturally located in full-length LRP1 after the cleavage site of the signal peptide; numbers count on: the mature protein; introduced by the cloning process (BamHI site); LRP1 cluster IV, 11 CR modules (CR21-31), human; Secreted with the LRP1 signal peptide, which is cleaved; Glycosylated: 62,528 Da by MALDI; also called CR21-31
B3: Soluble LRP1 cluster II (domain or fragment, human)
chain: AIDAGSPQCQPGEFACANSRCIQERWKCDGDNDCLDNSDEAPALCHQHTCPSDRFKCENNRCIPNRWLCDGDNDCGNSEDESNATCSARTCPPNQFSCASGRCIPISWTCDLDDDCGDRSDESASCAYPTCFPLTQFTCNNGRCININWRCDNDNDCGDNSDEAGCSHSCSSTQFKCNSGRCIPEHWTCDGDNDCGDYSDETHANCTNQATRPPGGCHTDEFQCRLDGLCIPLRWRCDGDTDCMDSSDEKSCEGVTHVCDPSVKFGCKDSARCISKAWVCDGDNDCEDNSDEENCESLACRPPSHPCANNTSVCLPPDKLCDGNDDCGDGSDEGELC
notes: four amino acids naturally located in full-length LRP1 after the cleavage site of the signal peptide; numbers count on: the mature protein; introduced by the cloning process (BamHI site); LRP1 cluster II, 8 CR modules (CR3-10), human; Secreted with the LRP1 signal peptide, which is cleaved; Glycosylated: 50,372 Da by MALDI; also called CR3-10

How the values were obtained:
Details in all cases: both partners purified
Soluble LRP1 cluster IV = target: B2; test: SPR; BIAcore 3000; full-length (ecto) LRP1 (7,400 RU) or clusters II (2,967 RU), III (3,460 RU), IV (3,396 RU) immobilised on CM5 by amine coupling; RAP 0.25-16 nM injected in 50 mM TEA, 150 mM NaCl, 1 mM CaCl2, 0.005% P20, pH 7.4, 20 µl/min; global fit, 1:1 Langmuir
Chain of Soluble LRP1 cluster IV (Q07954 other isoform, or with tags, fused parts or gaps): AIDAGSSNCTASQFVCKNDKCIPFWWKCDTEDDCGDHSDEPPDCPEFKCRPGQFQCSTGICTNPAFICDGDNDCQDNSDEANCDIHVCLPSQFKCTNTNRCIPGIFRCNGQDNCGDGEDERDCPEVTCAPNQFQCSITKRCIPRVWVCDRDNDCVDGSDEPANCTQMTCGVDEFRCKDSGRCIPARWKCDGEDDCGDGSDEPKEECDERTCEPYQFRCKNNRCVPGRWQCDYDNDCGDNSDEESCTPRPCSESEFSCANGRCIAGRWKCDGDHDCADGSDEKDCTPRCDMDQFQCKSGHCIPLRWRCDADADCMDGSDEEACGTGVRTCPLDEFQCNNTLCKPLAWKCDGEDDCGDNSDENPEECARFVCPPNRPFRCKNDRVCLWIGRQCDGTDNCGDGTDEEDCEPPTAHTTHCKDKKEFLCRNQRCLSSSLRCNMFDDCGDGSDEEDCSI

[1] = target: T1, Full-length LRP1 (soluble LRP1) (human, UniProt Q07954 20-4419); test: as above
T1 construct: LDL receptor-related protein 1 (LRP1, CD91), soluble form called ecto-LRP1; also called ecto-LRP1; ecto LRP1; source: produced and purified according to De Nardis et al. (15)
T1 sequence (Q07954 20-4419): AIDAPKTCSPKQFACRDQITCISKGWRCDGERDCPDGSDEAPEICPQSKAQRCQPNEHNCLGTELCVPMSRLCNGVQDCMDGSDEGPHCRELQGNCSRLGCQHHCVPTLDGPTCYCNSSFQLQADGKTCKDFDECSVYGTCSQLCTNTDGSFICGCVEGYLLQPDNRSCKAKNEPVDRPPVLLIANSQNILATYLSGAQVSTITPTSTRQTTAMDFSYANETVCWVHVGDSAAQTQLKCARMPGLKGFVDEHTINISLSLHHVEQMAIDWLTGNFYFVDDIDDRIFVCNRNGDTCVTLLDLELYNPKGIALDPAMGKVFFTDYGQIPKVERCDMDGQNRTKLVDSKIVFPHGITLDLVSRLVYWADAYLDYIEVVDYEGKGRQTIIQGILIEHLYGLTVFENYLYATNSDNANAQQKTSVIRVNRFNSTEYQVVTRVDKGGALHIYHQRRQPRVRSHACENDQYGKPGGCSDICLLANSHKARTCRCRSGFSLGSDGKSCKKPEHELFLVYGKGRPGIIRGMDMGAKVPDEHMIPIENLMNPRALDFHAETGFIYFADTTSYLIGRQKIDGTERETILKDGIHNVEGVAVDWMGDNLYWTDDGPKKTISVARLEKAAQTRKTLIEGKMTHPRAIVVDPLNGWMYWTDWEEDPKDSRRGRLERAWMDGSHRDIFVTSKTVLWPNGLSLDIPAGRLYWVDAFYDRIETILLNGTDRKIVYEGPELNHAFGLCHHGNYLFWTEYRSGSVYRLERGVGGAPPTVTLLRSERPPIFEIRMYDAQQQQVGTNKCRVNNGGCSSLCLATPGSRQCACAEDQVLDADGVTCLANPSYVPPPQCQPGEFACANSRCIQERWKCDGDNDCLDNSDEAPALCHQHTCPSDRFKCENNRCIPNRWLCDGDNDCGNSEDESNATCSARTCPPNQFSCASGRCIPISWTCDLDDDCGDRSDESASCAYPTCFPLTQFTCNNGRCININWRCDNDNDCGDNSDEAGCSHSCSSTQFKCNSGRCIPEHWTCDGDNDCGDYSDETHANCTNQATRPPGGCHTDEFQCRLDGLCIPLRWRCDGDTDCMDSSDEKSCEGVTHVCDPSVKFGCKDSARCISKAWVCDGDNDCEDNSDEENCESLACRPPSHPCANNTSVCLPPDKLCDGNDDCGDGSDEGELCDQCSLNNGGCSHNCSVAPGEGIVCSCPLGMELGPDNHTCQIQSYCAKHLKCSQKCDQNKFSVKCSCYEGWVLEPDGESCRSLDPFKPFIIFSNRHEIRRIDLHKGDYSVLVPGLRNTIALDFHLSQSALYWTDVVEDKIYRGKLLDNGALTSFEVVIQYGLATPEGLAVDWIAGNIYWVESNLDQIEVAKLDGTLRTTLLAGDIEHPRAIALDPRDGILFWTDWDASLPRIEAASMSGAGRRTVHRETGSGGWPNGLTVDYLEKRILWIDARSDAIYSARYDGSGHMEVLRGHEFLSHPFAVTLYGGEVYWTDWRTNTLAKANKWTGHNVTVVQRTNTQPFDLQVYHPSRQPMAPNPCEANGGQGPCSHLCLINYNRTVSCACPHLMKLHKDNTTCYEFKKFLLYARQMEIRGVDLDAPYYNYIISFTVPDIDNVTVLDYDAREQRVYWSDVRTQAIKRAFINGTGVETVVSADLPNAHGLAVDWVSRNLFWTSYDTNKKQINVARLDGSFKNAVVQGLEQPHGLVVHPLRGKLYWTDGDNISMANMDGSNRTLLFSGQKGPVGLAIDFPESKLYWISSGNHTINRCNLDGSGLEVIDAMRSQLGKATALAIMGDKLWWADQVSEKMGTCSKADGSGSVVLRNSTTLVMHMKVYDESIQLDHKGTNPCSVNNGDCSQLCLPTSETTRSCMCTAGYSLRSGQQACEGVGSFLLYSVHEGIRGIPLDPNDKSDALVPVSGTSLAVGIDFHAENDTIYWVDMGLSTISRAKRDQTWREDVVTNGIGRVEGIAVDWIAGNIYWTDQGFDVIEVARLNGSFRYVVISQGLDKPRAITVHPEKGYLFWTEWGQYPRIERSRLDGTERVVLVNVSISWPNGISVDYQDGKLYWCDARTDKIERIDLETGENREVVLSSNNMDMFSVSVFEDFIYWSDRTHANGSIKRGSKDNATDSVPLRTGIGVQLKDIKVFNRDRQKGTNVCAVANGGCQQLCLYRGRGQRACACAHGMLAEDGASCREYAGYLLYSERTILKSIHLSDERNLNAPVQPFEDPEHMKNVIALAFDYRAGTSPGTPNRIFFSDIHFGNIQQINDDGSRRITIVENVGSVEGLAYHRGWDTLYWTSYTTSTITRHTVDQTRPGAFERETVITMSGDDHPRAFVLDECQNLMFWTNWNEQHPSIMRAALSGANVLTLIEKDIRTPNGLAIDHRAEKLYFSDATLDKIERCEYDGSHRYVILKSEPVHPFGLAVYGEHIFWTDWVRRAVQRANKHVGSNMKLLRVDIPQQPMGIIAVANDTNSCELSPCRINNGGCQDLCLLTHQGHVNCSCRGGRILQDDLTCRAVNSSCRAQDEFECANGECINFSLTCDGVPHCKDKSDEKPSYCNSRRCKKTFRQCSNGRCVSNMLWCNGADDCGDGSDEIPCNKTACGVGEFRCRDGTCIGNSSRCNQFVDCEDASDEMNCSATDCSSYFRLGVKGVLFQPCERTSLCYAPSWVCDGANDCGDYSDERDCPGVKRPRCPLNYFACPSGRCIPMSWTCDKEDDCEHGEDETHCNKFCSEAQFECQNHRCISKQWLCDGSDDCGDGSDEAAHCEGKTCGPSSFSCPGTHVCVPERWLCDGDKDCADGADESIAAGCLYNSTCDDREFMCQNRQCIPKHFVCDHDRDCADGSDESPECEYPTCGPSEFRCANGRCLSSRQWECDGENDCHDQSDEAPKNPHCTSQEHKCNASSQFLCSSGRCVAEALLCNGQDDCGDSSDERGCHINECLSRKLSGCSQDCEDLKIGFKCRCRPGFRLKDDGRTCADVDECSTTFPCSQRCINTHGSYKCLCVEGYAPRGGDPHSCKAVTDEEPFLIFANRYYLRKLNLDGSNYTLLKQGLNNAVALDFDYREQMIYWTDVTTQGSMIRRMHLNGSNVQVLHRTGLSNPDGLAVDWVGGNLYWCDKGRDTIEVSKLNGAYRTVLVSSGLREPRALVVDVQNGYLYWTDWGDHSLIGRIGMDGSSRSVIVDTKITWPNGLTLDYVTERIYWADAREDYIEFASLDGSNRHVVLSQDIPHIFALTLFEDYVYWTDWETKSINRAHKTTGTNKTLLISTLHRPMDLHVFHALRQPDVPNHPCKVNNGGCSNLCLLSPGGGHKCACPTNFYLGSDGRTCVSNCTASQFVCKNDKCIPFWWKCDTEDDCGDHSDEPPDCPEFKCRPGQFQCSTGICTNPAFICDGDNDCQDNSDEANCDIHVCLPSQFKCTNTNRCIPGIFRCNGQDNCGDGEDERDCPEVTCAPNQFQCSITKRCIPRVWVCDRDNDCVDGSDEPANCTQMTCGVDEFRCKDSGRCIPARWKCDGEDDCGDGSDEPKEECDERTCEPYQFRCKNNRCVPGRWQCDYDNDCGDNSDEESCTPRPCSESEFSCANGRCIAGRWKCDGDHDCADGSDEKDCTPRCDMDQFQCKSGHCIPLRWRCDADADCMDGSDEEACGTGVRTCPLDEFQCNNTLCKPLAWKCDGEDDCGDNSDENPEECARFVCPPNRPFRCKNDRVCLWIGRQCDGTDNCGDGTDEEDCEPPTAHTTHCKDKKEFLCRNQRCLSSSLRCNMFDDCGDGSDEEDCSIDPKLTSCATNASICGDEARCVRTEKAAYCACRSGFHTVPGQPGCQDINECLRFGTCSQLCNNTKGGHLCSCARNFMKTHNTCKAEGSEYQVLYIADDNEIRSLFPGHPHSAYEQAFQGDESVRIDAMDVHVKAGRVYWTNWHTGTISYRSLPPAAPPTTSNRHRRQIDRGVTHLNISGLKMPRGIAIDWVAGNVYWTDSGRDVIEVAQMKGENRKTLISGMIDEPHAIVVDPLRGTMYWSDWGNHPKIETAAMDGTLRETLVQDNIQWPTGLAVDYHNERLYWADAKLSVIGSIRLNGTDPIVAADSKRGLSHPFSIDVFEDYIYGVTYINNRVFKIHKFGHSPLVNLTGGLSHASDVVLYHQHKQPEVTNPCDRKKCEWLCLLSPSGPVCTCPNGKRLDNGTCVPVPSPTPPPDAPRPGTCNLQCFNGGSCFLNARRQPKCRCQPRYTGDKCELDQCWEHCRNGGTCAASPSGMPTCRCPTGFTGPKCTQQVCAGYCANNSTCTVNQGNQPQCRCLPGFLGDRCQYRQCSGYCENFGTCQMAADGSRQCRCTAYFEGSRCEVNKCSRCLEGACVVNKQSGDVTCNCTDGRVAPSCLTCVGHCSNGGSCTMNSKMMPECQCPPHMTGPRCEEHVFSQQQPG

Soluble LRP1 cluster II = target: B3; test: as above
Soluble LRP1 cluster III = target: T2, Soluble LRP1 cluster III (human, UniProt Q07954 2522-2940); test: as above
T2 construct: four amino acids naturally located in full-length LRP1 after the cleavage site of the signal peptide; numbers count on: the mature protein; introduced by the cloning process (BamHI site); LRP1 cluster III, 10 CR modules (CR11-20), human; Secreted with the LRP1 signal peptide, which is cleaved; Glycosylated: 63,734 Da by MALDI; also called CR11-20

[2] = target: T3, C1q purified from human serum (human, UniProt P02745 23-245; P02746 28-253; P02747 29-245); test: SPR; T200; serum C1q (14,000 RU), rC1q WT (11,000 RU) or rC1qABC (12,300 RU) immobilised on CM5; clusters II and IV injected in 50 mM Tris, 150 mM NaCl, 2 mM CaCl2, 0.05% P20, pH 7.4, 180 s at 30 µl/min; KD by steady state analysis
T3 construct: complement C1q, A chain, human, from serum; complement C1q, B chain, human, from serum; complement C1q, C chain, human, from serum; also called serum C1q; sC1q; source: purified from human serum; copies: 6 + 6 + 6

[3] = target: T4, Recombinant C1q (wild type) (UniProt P02745 23-245; P02746 28-253; P02747 29-245); test: as above
T4 construct: complement C1q, A chain, recombinant; complement C1q, B chain, recombinant; complement C1q, C chain, recombinant; none of these is told here; also called rC1q WT; wild-type C1q; source: produced and purified as described in Bally et al. (16); copies: 6 + 6 + 6

[4] = target: T5, C1q mutant LysA59Ala/LysB61Ala/LysC58Ala (UniProt P02745 23-245; P02746 28-253; P02747 29-245, LysA59Ala | LysB61Ala | LysC58Ala); test: as above
T5 construct: complement C1q, A chain, recombinant; complement C1q, B chain, recombinant; complement C1q, C chain, recombinant; also called rC1qABC; rC1q ABC; source: produced and purified as described in Bally et al. (16); copies: 6 + 6 + 6

[5] = target: T3, C1q purified from human serum; test: SPR; T200; cluster II (1,230 RU) or cluster IV (1,270 RU) immobilised on CM5; serum C1q, CLR or GR injected in 50 mM Tris, 150 mM NaCl, 2 mM CaCl2, 0.05% P20, pH 7.4, 30 µl/min; KD from C1q 0.125-8 nM by steady state analysis; for competition C1q pre-incubated 15 min at 25°C with C1r2s2

Row | Kd (Soluble LRP1 cluster IV) | koff (Soluble LRP1 cluster IV) | kon (Soluble LRP1 cluster IV) | Kd [1] | koff [1] | kon [1] | Kd (Soluble LRP1 cluster II) | koff (Soluble LRP1 cluster II) | kon (Soluble LRP1 cluster II) | Kd (Soluble LRP1 cluster III) | koff (Soluble LRP1 cluster III) | kon (Soluble LRP1 cluster III) | Kd [2] | Kd [3] | Kd [4] | Kd [5] | Binder
1 | 1.28 nM | 0.00147 s⁻¹ | 1.18e+06 M⁻¹ s⁻¹ | 0.76 nM | 0.00105 s⁻¹ | 1.41e+06 M⁻¹ s⁻¹ | 1.09 nM | 0.00196 s⁻¹ | 2.2e+06 M⁻¹ s⁻¹ | 1.06 nM | 0.00308 s⁻¹ | 2.95e+06 M⁻¹ s⁻¹ |  |  |  |  | B1
2 |  |  |  |  |  |  |  |  |  |  |  |  | 158 nM | 183 nM | 222 nM | 0.69 nM | B2
3 |  |  |  |  |  |  |  |  |  |  |  |  | 275 nM | 318 nM | 514 nM | 3.49 nM | B3
